System: gus gene
Assay: Histochemical analysis of β-glucuronidase activity in transformed plants
Type: in vivo, Arabidopsis thaliana
Details: for induction of the promoter construct by ABA: gus reporter, ABA treatment; for expression of gus gene in different development stages and organs: several independent lines, all studied organs; for expression of gus gene in cotyledons: 2-day germination seedlings
Text: When the construct including the complete segment of the small allele was employed, the expression of the gus gene in the cotyledons of 2-day germination seedlings was also viewed. However, and differing from the region 0 to −400, the expression of gus gene was very intense in the leaves and roots of the young seedlings (FIG. 20).
The inventive plants from A. thaliana that resulted resistant to kanamycin in the selection and PCR reaction of were subjected to histochemical β-glucuronidase activity test. The tested embryos and organs were washed with buffer 50 mM Na2HPO4 pH 7. They were then transferred to a solution 50 mM Na2HPO4 pH 7.0, 1% Triton X-100, 2 mM X-gluc (5-bromine-4-chlorine-3-indolil β-D-glucuronide), subjected to vacuum for 5 minutes and incubated at 37° C. in darkness between 2 and 12 hours. After incubation they were fixed in 10% formaldehide solution, 50% ethanol and 5% ascetic acid for 10 minutes at room temperature. Formaldehide was removed, ethanol 70% was added and conserved at 4° C.
The histochemical analysis was made in 2, 10 and 20 day-old seedlings grown in Petri dishes containing MS medium and 0.8% agar and adult plants grown in flowerpots containing soil.

B1: region 0 to −300: promoter fragment, nucleotides 904 to 1221 of SEQ ID NO 3, in pBI101.3 (nucleic acid, listed as Helianthus annuus)
DNA: AACCTAAGTCCGCCTTTGTCTGGATCACGTGAAACATCAGGTCTCTCCCTTACCAGTCCAGCTACGACTCATTGACAAAATATCAAAACCATATGATTTTGAGTTTTATCTCAACCGAAAGTGACATCATGACAGAGAATCGACATAACCAAAACGTGTAAACGTACAACTCACCATTGCGTTGAAAAGGACAAAACAGGTAGGATTCTTGTCAAATTCAACGCGTACACCTGTGCTTCATCTAAACCCCATACTTTAAGAACCTTTATAAAGACCACTCACTATATATACACATATATAATATCACTTATCAAACCC
modifications: in pBI101.3; promoter (1)..(1221) Large allele
Q: Which “induction of the promoter construct by ABA” value does the source give for B1 here?
A: Its value is “not induced by ABA”.

Q: And the “expression of gus gene in different development stages and organs” value?
A: Its value is “not expressed”.

B2: construct including the complete segment of the small allele: promoting region from 0 to −1015 (small allele, SEQ ID NO 10) cloned in pBI101.3 driving gus (nucleic acid, listed as Helianthus annuus)
DNA: GATCCAATTGGACCACCTGGCACATCGTATCTTATCTCTTTTGTCGTTTCCAACACACCACAACACACCTACAAACGTGTCAATTCACACTTCACCAATTTCATTTCCTTTTAGTCAATCATATTAAAAGTAGTAGCCCCCACCCCCATTTGTTACCTACCATTTCCCACTTTAATAATCACCCACGCTATGTCCACTTGTACTTTTGTTTGCACACAACTCTTCCCATAAAATATCAAACCAAATTTTTTTTAATGGAAAACAAATACTTCAAATGCACTATTGGTGAAATTCACCACATCAGAATACACCCGTCTCTACTCATCTACTGGCCAACGAATCTTCACGGGGGAAACCCTCACTCGTCTACTGGGACTACTGGCGCTTCAAAATGGACTACTGACAAAATTCACCACATCGGGATACACTTGTCTACTGCGGTGAGGTAAAATCCGCCGCTCAGCTCAATGATCGAACTAGCGATCGCCACCCACTCACCTTGTCTCCCATCATCACCAGGTGCCGCCAAAACAAAATGTTGGGGGCGGGAATTGAACCTAGGTCCAGTGGCGCACCCATGAATTTTTTTTCTAGGGATGCGAACGAGTGATTTAACCATACTTTTAAGAGGTGCGATCGGAAATTTTACCTATAAAATATACTAAAAAAATTTCAAGGGTCCGCCCACCCACCCCTTAACCTAAGTCCGCCTCTGCCTGGATCACGTGAAACATCAGGTCTCTCTCTTACCAGTTCACCTACAACTCATTGACAAAATATCAAAACCATATGATTTTGAGTTTTATCTCAACCGAAAGTGACATCATGACAGAGAATCGACATAACCAAAACGTGTAAACGTACAACTCACCATTGCGTTGAAAAGGACAAAACAGGTAGGATTCTTGTCAAATTCAACGCGTACACCTGTGCTTCATCTAAACCCCATACTTTAAGAACCTTTATAAAGACCACTCACTATATATACACATATATAATATCACTTATCAAACCC
modifications: cloned in pBI101.3 driving gus
Q: B2 was tested. Which “expression of gus gene in cotyledons” value did it give?
A: The value was “also viewed”.

Q: What about the “expression of gus gene during the reproductive stage” value (reproductive stage) of the same molecule?
A: The value was “not detected any expression”.

Q: What about the “expression of gus gene in leaves and roots” value (young seedlings) of the same molecule?
A: Its value is “very intense”.

B3: region 0 to −200: promoter fragment, nucleotides 1011 to 1221 of SEQ ID NO 3, in pBI101.3 (nucleic acid, listed as Helianthus annuus)
DNA: ATCTCAACCGAAAGTGACATCATGACAGAGAATCGACATAACCAAAACGTGTAAACGTACAACTCACCATTGCGTTGAAAAGGACAAAACAGGTAGGATTCTTGTCAAATTCAACGCGTACACCTGTGCTTCATCTAAACCCCATACTTTAAGAACCTTTATAAAGACCACTCACTATATATACACATATATAATATCACTTATCAAACCC
modifications: in pBI101.3; promoter (1)..(1221) Large allele
Q: With B3 as the molecule, how does the “induction of the promoter construct by ABA” value read?
A: The value was “not induced by ABA”.

Q: And the “expression of gus gene in different development stages and organs” value?
A: Its value is “not expressed”.

B4: construct 0 to −400: Hahb-4 promoter fragment, nucleotides 805 to 1221 of SEQ ID NO 3, cloned into pBI101.3 driving gus (nucleic acid, listed as Helianthus annuus)
DNA: GGATGCGAACGAGTGGTTTAACCATACTTTTAAGAGGTGCGATCGGAAATTTTACCTATAAAATACACTAAAAAAGTTCCAAGGGTCCACCCACCCCTTAACCTAAGTCCGCCTTTGTCTGGATCACGTGAAACATCAGGTCTCTCCCTTACCAGTCCAGCTACGACTCATTGACAAAATATCAAAACCATATGATTTTGAGTTTTATCTCAACCGAAAGTGACATCATGACAGAGAATCGACATAACCAAAACGTGTAAACGTACAACTCACCATTGCGTTGAAAAGGACAAAACAGGTAGGATTCTTGTCAAATTCAACGCGTACACCTGTGCTTCATCTAAACCCCATACTTTAAGAACCTTTATAAAGACCACTCACTATATATACACATATATAATATCACTTATCAAACCC
modifications: cloned in pBI101.3 driving gus; promoter (1)..(1221) Large allele
Q: Which results are given for B4?
A: expression of gus gene in cotyledons: enough to drive the expression of gene gus; expression of gus gene in young seedlings (10 germination days): not detectable; induction of the promoter construct by ABA: capable of being induced by ABA

Reference: patent US8283521B2, “Transcription factor gene induced by water deficit conditions and abscisic acid from Helianthus annuus, promoter and transgenic plants” (Bioceres S.A., priority 2003, dated 2012)
